Molecular target: T1, 15-mer H3K4me2 histone tail peptide (histone H3 tail dimethylated at lysine 4) (dimethyl-lysine at K4)
T1 construct: histone H3 N-terminal tail, 15-mer peptide, K4 dimethylated; numbers count on: the mature protein (A1 is the N-terminal residue); Surmise: residues 1-15 of the mature histone H3 (A1 to A15); also called dimethylated histone H3 tail peptide
Experiment: ITC; H3K4me2 peptide injected (19 x 2 ul) into the protein; 25 °C; 25 mM Tris pH 8.0, 100 mM NaCl; iTC 200; one-site model
Conditions: both partners purified

Kd	Binder
10.3 µM	PHD_(Pygo1)–HD1_(BCL9) complex with Pygo1 W390F (complex) VYPCGICTNEVNDDQDAILCEASCQKWFHRICTGMTETAYGLLTAEASAVFGCDTCMADKDVYVFSTEMANKAAEAVLKGQVETIVSFHI
13.5 µM	PHD_(Pygo1)–HD1_(BCL9) complex with Pygo1 I357A (complex) VYPCGICTNEVNDDQDAALCEASCQKWFHRICTGMTETAYGLLTAEASAVWGCDTCMADKDVYVFSTEMANKAAEAVLKGQVETIVSFHI

Source: article PMC2927781, “Allosteric Remodelling of the Histone H3 Binding Pocket in the Pygo2 PHD Finger Triggered by Its Binding to the B9L/BCL9 Co-Factor” (Journal of Molecular Biology, 2010)
